From patent US20210145976A1
Residue numbers refer to the chain shown, from its start.

B1: SEQ ID NO 160 (designed binder)
chain: MLPAPKNLVVSRVTEDSARLSWTAPDAAFDSFNIAYGEWRQHGEAIVLTVPGSERSYDLTGLKPGTEYDVFIDGVKGGNLSWPLSAIFTT
B2: SEQ ID NO 166 (designed binder)
chain: B1 chain with N33T, A35L, G37N, W39I, R40Q, Q41N, H42V, F71W, D73E, N79E
B3: SEQ ID NO 172 (designed binder)
chain: MLPAPKNLVVSRVTEDSARLSWTAPDAAFDSFPIEYDEWWALGEAITLIVPASERSYDLTGLKPGTEYVVKIHGVKGGQRSYPLIAFFTT
B4: SEQ ID NO 161 (designed binder)
chain: MLPAPKNLVVSRVTEDSARLSWTAPDAAFDSFTIRYWEELPTGEAIVLTVPGSERSYDLTGLKPGTEYTVEIFGVKGGYLSRPLSAISTT
B5: SEQ ID NO 156 (designed binder)
chain: MLPAPKNLVVSRVTEDSARLSWTAPDAAFDSFAIEYFENLGIGEAIVLTVPGSERSYDLTGLKPGTEYVVNIYGVKGGWLSSPLSAIFTT
B6: SEQ ID NO 42 (designed binder)
chain: B5 chain with A33T, F37Y, N39S, L40F, G41Y, I42G, V69Y, N71S, S82R
B7: SEQ ID NO 44 (designed binder)
chain: B5 chain with A33Y, F37Y, N39S, G41P, I42D, V69A, N71Y, W79Y, L80Y, S82R
B8: SEQ ID NO 157 (designed binder)
chain: B5 chain with F37Y, N39Y, L40V, I42N, V69Q, N71G, W79Y, L80Y, S82R
B9: SEQ ID NO 162 (designed binder)
chain: MLPAPKNLVVSRVTEDSARLSWTAPDAAFDSFHIAYEEATTYGEAIFLRVPGSERSYDLTGLKPGTEYDVWIEGVKGGTISGPLSAIFTT
B10: SEQ ID NO 155 (designed binder)
chain: MLPAPKNLVVSRVTEDSARLSWTAPDAAFDSFPITYRERSQYGEAIVLTVPGSERSYDLTGLKPGTEYVVPIEGVKGGRGSKPLSAIFTT
B11: SEQ ID NO 180 (designed binder)
chain: MLPAPKNLVVSRVTEDSARLSWTAPDAAFDSFEISYYEMRGYGEAIVLTVPGSERSYDLTGLKPGTEYSVLIHGVEGGDYSSPLSAISTT
B12: SEQ ID NO 152 (designed binder)
chain: MLPAPKNLVVSRVTEDSARLSWTAPDAAFDSFFIGYLEPQPPGEAIVLTVPGSERSYDLTGLKPGTEYNVTIQGVKGGFPSSPLSAIFTT
B13: SEQ ID NO 177 (designed binder)
chain: B12 chain with F79R, P80A, S82G
B14: SEQ ID NO 182 (designed binder)
chain: B12 chain with Q40Y, N69V, T71S, F79T, S82Q
B15: SEQ ID NO 174 (designed binder)
chain: B12 chain with N69K, T71V, F79T, S82E
B16: SEQ ID NO 168 (designed binder)
chain: B12 chain with A24T, Q40Y, N69V, T71S, F79K, S82D
B17: SEQ ID NO 175 (designed binder)
chain: B12 chain with N69S, T71V, S82D
B18: SEQ ID NO 173 (designed binder)
chain: MLPAPKNLVVSRVTEDSARLSWTAPDAAFDSFTIHYRELYVQAIVLTVPGSERSYDLTGLKPGTEYLVMIPGVKGGPTSVPLSAIFTT
B19: SEQ ID NO 149 (designed binder)
chain: MLPAPKNLVVSRVTEDSARLSWTAPDAAFDSFIIPYAEVRPDGEAIVLTVPGSERSYDLTGLKPGTEYSVLIHGVKGGKLSEPLSAIFTT
B20: SEQ ID NO 176 (designed binder)
chain: B19 chain with I33P, P35A, V39P, L71G, K79H, L80D, E82S
B21: SEQ ID NO 159 (designed binder)
chain: B19 chain with I33L, V39T, R40S, D42S, K79R, L80N, E82D
B22: SEQ ID NO 178 (designed binder)
chain: B19 chain with I33D, P35A, V39P, R40I, D42R, K79R, L80R, E82V
B23: SEQ ID NO 150 (designed binder)
chain: B19 chain with I33P, P35A, V39P, R40S, D42T, K79H, E82D
B24: SEQ ID NO 179 (designed binder)
chain: B19 chain with I33Y, P35A, V39P, S69P, L71P, H73P, K79P, L80G, E82S
B25: SEQ ID NO 181 (designed binder)
chain: B19 chain with R12H, I33P, P35A, V39P, K79L, E82S
B26: SEQ ID NO 151 (designed binder)
chain: B12 chain with G35P, L37A, Q40S, P42T, N69G, T71V, Q73L, F79Y, P80G, S82D
B27: SEQ ID NO 165 (designed binder)
chain: B19 chain with P5R, I33F, V39P, R40S, D42T, K79H, E82D, F88S
B28: SEQ ID NO 154 (designed binder)
chain: B19 chain with I33F, V39P, K79L, E82S
B29: SEQ ID NO 171 (designed binder)
chain: MLPAPKNLVVSRVTEDSARLSWTAPDAAFDSFAIRYLEWWDVGEAIVLTVPGSERSYDLTGLKPGTEYLVEIKGVKGGKFSYPLSAIFTT
B30: SEQ ID NO 158 (designed binder)
chain: MLPAPKNLVVSRVTEDSARLSWTAPDAAFDSFIIDYLELDDYGEAIVLTVPGSERSYDLTGLKPGTEYPVYIYGVKGGLPSTPLSAIFTT
B31: SEQ ID NO 43 (designed binder)
chain: MLPAPKNLVVSRVTEDSARLSWTAPDAAFDSFYIEYYESYPGGEAIVLTVPGSERSYDLTGLKPGTEYDVYIYGVKGGYWSRPLSAIFTT
B32: SEQ ID NO 153 (designed binder)
chain: MLPAPKNLVVSRVTEDSARLSWTAPDAALDSFRIAYTEYFVGGEAIVLTVPGSERSYDLTGLKPGTEYGVGIYGVKGGAGSSPLSAIFTT
B33: SEQ ID NO 170 (designed binder)
chain: MLPAPKNLVVSRVTEDSARLSWTAPDAAFDSFFIGYPEYPATGEAIVLTVPGSERSYDLTGLKPGTEYFVDINGVKGGSLSYPLSAIFTT

target: human serum albumin (human) (UniProt P02768); test: screening ELISA
Sequence (P02768 25-609 limits assumed): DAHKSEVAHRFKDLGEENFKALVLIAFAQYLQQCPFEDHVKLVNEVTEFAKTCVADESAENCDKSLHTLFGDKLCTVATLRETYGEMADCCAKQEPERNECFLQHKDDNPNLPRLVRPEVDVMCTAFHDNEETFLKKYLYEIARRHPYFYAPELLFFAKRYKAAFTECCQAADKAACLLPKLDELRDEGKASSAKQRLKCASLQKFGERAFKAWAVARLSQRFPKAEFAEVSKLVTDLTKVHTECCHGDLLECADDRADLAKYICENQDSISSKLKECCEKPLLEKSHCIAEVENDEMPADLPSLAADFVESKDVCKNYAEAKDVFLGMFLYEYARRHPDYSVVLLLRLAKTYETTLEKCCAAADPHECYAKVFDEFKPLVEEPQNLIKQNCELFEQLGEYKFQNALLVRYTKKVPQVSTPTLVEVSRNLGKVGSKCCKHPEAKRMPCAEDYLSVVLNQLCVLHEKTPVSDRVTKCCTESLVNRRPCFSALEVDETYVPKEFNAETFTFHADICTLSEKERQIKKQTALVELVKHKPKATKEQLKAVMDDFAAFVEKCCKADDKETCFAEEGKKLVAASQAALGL

| HSA | Binder |
| --- | --- |
| 3300 | B1 |
| 5050 | B2 |
| 3700 | B3 |
| 5050 | B4 |
| 5000 | B5 |
| 5920 | B6 |
| 3920 | B7 |
| 2450 | B8 |
| 1850 | B9 |
| 26000 | B10 |
| 33500 | B11 |
| 5300 | B12 |
| 2450 | B13 |
| 2950 | B14 |
| 2200 | B15 |
| 1950 | B16 |
| 1600 | B17 |

| HSA | Binder |
| --- | --- |
| 20800 | B18 |
| 3350 | B19 |
| 10400 | B20 |
| 1950 | B21 |
| 2250 | B22 |
| 3500 | B23 |
| 74700 | B24 |
| 6000 | B25 |
| 55000 | B26 |
| 65200 | B27 |
| 4150 | B28 |
| 1900 | B29 |
| 1350 | B30 |
| 8160 | B31 |
| 13100 | B32 |
| 16800 | B33 |
